Results reported in patent US20260001928A1 (CORTERIA PHARMACEUTICALS, priority 2022, published 2026).
*1 amine or outer side, *2 acyl side, *3 side chain or, on linkers, in order; H or OH if unused. Where no end group is shown, it is not given here. Side-chain parts run from the residue outwards. [ ]: non-standard residue; d: D form. The star is where a group is joined. C20 diacid = O=C(O)CCCCCCCCCCCCCCCCCCC(=O)*; γGlu = O=C(O)[C@H](CCC(=O)[*:2])N[*:1]; NMeI = CC[C@H](C)[C@H](NC)C(=O)O; Pentanoyl = CCCCC(=O)*; AEEA = NCCOCCOCC(=O)O; Aib = CC(C)(N)C(=O)O

T1: CRF1R (corticotropin-releasing factor receptor 1), on the CRF1R-overexpression CHO-K1 cell line clone 2 (UniProt P34998 24-415, limits assumed)
T1 sequence (looked up): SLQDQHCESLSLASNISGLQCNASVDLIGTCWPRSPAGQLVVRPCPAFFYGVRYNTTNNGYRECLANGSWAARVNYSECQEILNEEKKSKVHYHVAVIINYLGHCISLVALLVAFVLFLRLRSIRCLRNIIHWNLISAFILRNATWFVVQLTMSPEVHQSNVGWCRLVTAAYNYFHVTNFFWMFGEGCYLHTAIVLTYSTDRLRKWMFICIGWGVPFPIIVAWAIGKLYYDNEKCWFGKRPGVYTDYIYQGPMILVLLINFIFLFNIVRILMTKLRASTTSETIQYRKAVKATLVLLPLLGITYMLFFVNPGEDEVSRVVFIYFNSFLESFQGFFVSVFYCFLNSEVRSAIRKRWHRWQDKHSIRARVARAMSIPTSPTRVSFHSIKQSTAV

B1: peptide of SEQ ID NO: 233 (peptide)
peptide: [NMeI]VLSLD[dV]PIKLK([AEEA-γGlu-C20 diacid])KILLEQEKQKEQREQAETN[Aib]QILAQV-NH2
modifications: N-terminus assumed
SMILES: CC[C@H](C)[C@H](NC)C(=O)N[C@H](C(=O)N[C@@H](CC(C)C)C(=O)N[C@@H](CO)C(=O)N[C@@H](CC(C)C)C(=O)N[C@@H](CC(=O)O)C(=O)N[C@@H](C(=O)N1CCC[C@H]1C(=O)N[C@H](C(=O)N[C@@H](CCCCN)C(=O)N[C@@H](CC(C)C)C(=O)N[C@@H](CCCCNC(=O)COCCOCCNC(=O)CC[C@H](NC(=O)CCCCCCCCCCCCCCCCCCC(=O)O)C(=O)O)C(=O)N[C@@H](CCCCN)C(=O)N[C@H](C(=O)N[C@@H](CC(C)C)C(=O)N[C@@H](CC(C)C)C(=O)N[C@@H](CCC(=O)O)C(=O)N[C@@H](CCC(N)=O)C(=O)N[C@@H](CCC(=O)O)C(=O)N[C@@H](CCCCN)C(=O)N[C@@H](CCC(N)=O)C(=O)N[C@@H](CCCCN)C(=O)N[C@@H](CCC(=O)O)C(=O)N[C@@H](CCC(N)=O)C(=O)N[C@@H](CCCNC(=N)N)C(=O)N[C@@H](CCC(=O)O)C(=O)N[C@@H](CCC(N)=O)C(=O)N[C@@H](C)C(=O)N[C@@H](CCC(=O)O)C(=O)N[C@H](C(=O)N[C@@H](CC(N)=O)C(=O)NC(C)(C)C(=O)N[C@@H](CCC(N)=O)C(=O)N[C@H](C(=O)N[C@@H](CC(C)C)C(=O)N[C@@H](C)C(=O)N[C@@H](CCC(N)=O)C(=O)N[C@H](C(N)=O)C(C)C)[C@@H](C)CC)[C@@H](C)O)[C@@H](C)CC)[C@@H](C)CC)C(C)C)C(C)C
B2: peptide of SEQ ID NO: 232 (peptide)
peptide: Ac-IVLSLD[dV]PIKLK([AEEA-γGlu-C20 diacid])KILLEQEKQKAQREQAETN[Aib]QILAQV-NH2
SMILES: CC[C@H](C)[C@H](NC(C)=O)C(=O)N[C@H](C(=O)N[C@@H](CC(C)C)C(=O)N[C@@H](CO)C(=O)N[C@@H](CC(C)C)C(=O)N[C@@H](CC(=O)O)C(=O)N[C@@H](C(=O)N1CCC[C@H]1C(=O)N[C@H](C(=O)N[C@@H](CCCCN)C(=O)N[C@@H](CC(C)C)C(=O)N[C@@H](CCCCNC(=O)COCCOCCNC(=O)CC[C@H](NC(=O)CCCCCCCCCCCCCCCCCCC(=O)O)C(=O)O)C(=O)N[C@@H](CCCCN)C(=O)N[C@H](C(=O)N[C@@H](CC(C)C)C(=O)N[C@@H](CC(C)C)C(=O)N[C@@H](CCC(=O)O)C(=O)N[C@@H](CCC(N)=O)C(=O)N[C@@H](CCC(=O)O)C(=O)N[C@@H](CCCCN)C(=O)N[C@@H](CCC(N)=O)C(=O)N[C@@H](CCCCN)C(=O)N[C@@H](C)C(=O)N[C@@H](CCC(N)=O)C(=O)N[C@@H](CCCNC(=N)N)C(=O)N[C@@H](CCC(=O)O)C(=O)N[C@@H](CCC(N)=O)C(=O)N[C@@H](C)C(=O)N[C@@H](CCC(=O)O)C(=O)N[C@H](C(=O)N[C@@H](CC(N)=O)C(=O)NC(C)(C)C(=O)N[C@@H](CCC(N)=O)C(=O)N[C@H](C(=O)N[C@@H](CC(C)C)C(=O)N[C@@H](C)C(=O)N[C@@H](CCC(N)=O)C(=O)N[C@H](C(N)=O)C(C)C)[C@@H](C)CC)[C@@H](C)O)[C@@H](C)CC)[C@@H](C)CC)C(C)C)C(C)C
B3: peptide of SEQ ID NO: 234 (peptide)
peptide: [NMeI]VLSLD[dV]PIKLK([AEEA-γGlu-C20 diacid])KILLEQEKQK[Aib]QREQAETN[Aib]QILAQV-NH2
modifications: N-terminus assumed
SMILES: CC[C@H](C)[C@H](NC)C(=O)N[C@H](C(=O)N[C@@H](CC(C)C)C(=O)N[C@@H](CO)C(=O)N[C@@H](CC(C)C)C(=O)N[C@@H](CC(=O)O)C(=O)N[C@@H](C(=O)N1CCC[C@H]1C(=O)N[C@H](C(=O)N[C@@H](CCCCN)C(=O)N[C@@H](CC(C)C)C(=O)N[C@@H](CCCCNC(=O)COCCOCCNC(=O)CC[C@H](NC(=O)CCCCCCCCCCCCCCCCCCC(=O)O)C(=O)O)C(=O)N[C@@H](CCCCN)C(=O)N[C@H](C(=O)N[C@@H](CC(C)C)C(=O)N[C@@H](CC(C)C)C(=O)N[C@@H](CCC(=O)O)C(=O)N[C@@H](CCC(N)=O)C(=O)N[C@@H](CCC(=O)O)C(=O)N[C@@H](CCCCN)C(=O)N[C@@H](CCC(N)=O)C(=O)N[C@@H](CCCCN)C(=O)NC(C)(C)C(=O)N[C@@H](CCC(N)=O)C(=O)N[C@@H](CCCNC(=N)N)C(=O)N[C@@H](CCC(=O)O)C(=O)N[C@@H](CCC(N)=O)C(=O)N[C@@H](C)C(=O)N[C@@H](CCC(=O)O)C(=O)N[C@H](C(=O)N[C@@H](CC(N)=O)C(=O)NC(C)(C)C(=O)N[C@@H](CCC(N)=O)C(=O)N[C@H](C(=O)N[C@@H](CC(C)C)C(=O)N[C@@H](C)C(=O)N[C@@H](CCC(N)=O)C(=O)N[C@H](C(N)=O)C(C)C)[C@@H](C)CC)[C@@H](C)O)[C@@H](C)CC)[C@@H](C)CC)C(C)C)C(C)C
B4: peptide of SEQ ID NO: 235 (peptide)
peptide: Pentanoyl-VLSLD[dV]PIKLK([AEEA-γGlu-C20 diacid])KILLEQEKQKKQREQAETN[Aib]QILAQV-NH2
SMILES: CCCCC(=O)N[C@H](C(=O)N[C@@H](CC(C)C)C(=O)N[C@@H](CO)C(=O)N[C@@H](CC(C)C)C(=O)N[C@@H](CC(=O)O)C(=O)N[C@@H](C(=O)N1CCC[C@H]1C(=O)N[C@H](C(=O)N[C@@H](CCCCN)C(=O)N[C@@H](CC(C)C)C(=O)N[C@@H](CCCCNC(=O)COCCOCCNC(=O)CC[C@H](NC(=O)CCCCCCCCCCCCCCCCCCC(=O)O)C(=O)O)C(=O)N[C@@H](CCCCN)C(=O)N[C@H](C(=O)N[C@@H](CC(C)C)C(=O)N[C@@H](CC(C)C)C(=O)N[C@@H](CCC(=O)O)C(=O)N[C@@H](CCC(N)=O)C(=O)N[C@@H](CCC(=O)O)C(=O)N[C@@H](CCCCN)C(=O)N[C@@H](CCC(N)=O)C(=O)N[C@@H](CCCCN)C(=O)N[C@@H](CCCCN)C(=O)N[C@@H](CCC(N)=O)C(=O)N[C@@H](CCCNC(=N)N)C(=O)N[C@@H](CCC(=O)O)C(=O)N[C@@H](CCC(N)=O)C(=O)N[C@@H](C)C(=O)N[C@@H](CCC(=O)O)C(=O)N[C@H](C(=O)N[C@@H](CC(N)=O)C(=O)NC(C)(C)C(=O)N[C@@H](CCC(N)=O)C(=O)N[C@H](C(=O)N[C@@H](CC(C)C)C(=O)N[C@@H](C)C(=O)N[C@@H](CCC(N)=O)C(=O)N[C@H](C(N)=O)C(C)C)[C@@H](C)CC)[C@@H](C)O)[C@@H](C)CC)[C@@H](C)CC)C(C)C)C(C)C

What was measured:
[1] = target: T1, CRF1R (corticotropin-releasing factor …); assay: cell-based or functional assay
[2] = target: Rat CRF2 a (corticotropin-releasing factor receptor 2), on the A7R5 rat aortic smooth muscle cell line (rat, UniProt P47866 20-411); assay: cell-based or functional assay
Rat CRF2 a (corticotropin-releasing factor receptor 2), on the A7R5 rat aortic smooth muscle cell line, sequence (P47866 20-411): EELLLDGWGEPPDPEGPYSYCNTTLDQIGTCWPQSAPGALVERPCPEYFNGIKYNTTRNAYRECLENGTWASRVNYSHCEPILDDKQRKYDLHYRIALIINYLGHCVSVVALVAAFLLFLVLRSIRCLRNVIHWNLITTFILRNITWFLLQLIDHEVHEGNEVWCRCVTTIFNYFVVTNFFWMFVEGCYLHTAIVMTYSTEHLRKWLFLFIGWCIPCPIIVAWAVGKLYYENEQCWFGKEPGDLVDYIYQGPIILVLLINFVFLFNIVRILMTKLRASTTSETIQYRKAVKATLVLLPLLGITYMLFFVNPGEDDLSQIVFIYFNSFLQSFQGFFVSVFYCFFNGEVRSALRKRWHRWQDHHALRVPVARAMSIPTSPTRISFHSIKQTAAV

EC50 [nM] (cAMP, CRF1R-overexpression CHO-K1 cells) [1] | Emax (% I) (cAMP, 100% = Sauvagine at 100 nM) [1] | EC50 [nM] 0% HSA (cAMP, A7R5 rat aortic smooth muscle cells) [2] [nM] | Binder
> 250 | 8 | 0.37 | B1
> 250 | 13 | 0.4 | B2
> 250 | 15 | 0.05 | B3
> 250 | 27 | 0.17 | B4
